Data reported in patent US20100190710A1, “IL-23 RECEPTOR ANTAGONISTS AND USES THEREOF” (Valorisation HSJ, Societe en Commandite, priority 2007, published 2010).
Entries after “also recorded” stand apart in the source; their conditions may differ. Square brackets hold non-standard residues; d marks the D form. Ends that are not written are not given here.

B1: peptide APG-2309 (peptide)
peptide: [dM][dE][dE][dS][dK][dQ][dL][dQ][dL]
B2: APG-2305-13 (peptide)
peptide: TEEEAAYL

Legend:
[1] = biological target: T1, IL-23 receptor (Homo sapiens, UniProt Q5VWK5); assay: IL-23-induced STAT3 phosphorylation in PMA-activated HL-60 monocytes (Western blot); format: cell-based; parameters: endogenous in cells; conditions: PMA-activated HL-60 human monocytes; peptide 1 μM, 30 min pre-incubation; IL-23 10 ng/ml, 15 min
T1 sequence (Q5VWK5 24-629): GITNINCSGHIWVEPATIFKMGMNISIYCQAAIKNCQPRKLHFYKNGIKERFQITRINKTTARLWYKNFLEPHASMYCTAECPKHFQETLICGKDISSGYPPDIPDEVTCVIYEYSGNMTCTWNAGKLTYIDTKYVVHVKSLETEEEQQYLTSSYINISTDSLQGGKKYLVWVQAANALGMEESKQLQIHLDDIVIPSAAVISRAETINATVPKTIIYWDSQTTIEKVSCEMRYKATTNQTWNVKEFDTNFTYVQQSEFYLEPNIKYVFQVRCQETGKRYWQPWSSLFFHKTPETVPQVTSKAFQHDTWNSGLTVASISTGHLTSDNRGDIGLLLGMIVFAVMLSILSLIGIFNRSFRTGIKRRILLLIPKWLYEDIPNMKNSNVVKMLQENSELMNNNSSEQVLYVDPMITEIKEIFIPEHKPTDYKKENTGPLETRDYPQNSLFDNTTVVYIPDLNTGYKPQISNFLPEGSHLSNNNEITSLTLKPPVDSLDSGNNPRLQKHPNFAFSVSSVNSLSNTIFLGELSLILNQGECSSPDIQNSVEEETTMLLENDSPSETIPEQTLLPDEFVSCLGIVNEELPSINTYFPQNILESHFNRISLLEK
Experimental: FIG. 2 is a graph showing the results of efficacy screening of peptides designed from the IL-23 receptor. HL-60 human monocytes were pre-incubated for 30 minutes with the particular peptides (1 μM) and stimulated for 15 minutes with IL-23 (10 ng/ml). Western Blot analysis of phosphorylated-STAT3 and total STAT3 was performed on cell lysates. Immunoblot densitometry was measured using ImagePro4+ software. […] FIGS. 3A and 3B are graphs showing inhibition of IL-23-induced STAT3 phosphorylation and TNFα generation. […] Western Blot analysis was performed on cell lysates, and immunoblot densitometry was measured using ImagePro4+ software. […] TNFα production was quantified by ELISA 24 hours after stimulation with IL-23 using the Quantikine ELISA Kit (R&D systems). […] D-peptides 2303, 2305, 2307 and 2309 (1 μM) inhibit IL-23-induced STAT3 phosphorylation in phorbol 12-myristate 13-acetate (PMA)-activated human monocytes (HL-60) (FIG. 2).

[2] = biological target: T2, IL-23R (Mus musculus, UniProt Q8K4B4); assay: IL-23-induced STAT3 phosphorylation in freshly isolated splenocytes (Alpha Screen SureFire p-STAT-3); format: cell-based
T2 construct: Spleens were sterilely removed from mice, sliced, and mashed in the presence of PBS buffer; from tissue; host or cells: mouse spleen: freshly isolated splenocytes, and CD4+ cells differentiated into TH17 cells
T2 sequence (Q8K4B4 24-644): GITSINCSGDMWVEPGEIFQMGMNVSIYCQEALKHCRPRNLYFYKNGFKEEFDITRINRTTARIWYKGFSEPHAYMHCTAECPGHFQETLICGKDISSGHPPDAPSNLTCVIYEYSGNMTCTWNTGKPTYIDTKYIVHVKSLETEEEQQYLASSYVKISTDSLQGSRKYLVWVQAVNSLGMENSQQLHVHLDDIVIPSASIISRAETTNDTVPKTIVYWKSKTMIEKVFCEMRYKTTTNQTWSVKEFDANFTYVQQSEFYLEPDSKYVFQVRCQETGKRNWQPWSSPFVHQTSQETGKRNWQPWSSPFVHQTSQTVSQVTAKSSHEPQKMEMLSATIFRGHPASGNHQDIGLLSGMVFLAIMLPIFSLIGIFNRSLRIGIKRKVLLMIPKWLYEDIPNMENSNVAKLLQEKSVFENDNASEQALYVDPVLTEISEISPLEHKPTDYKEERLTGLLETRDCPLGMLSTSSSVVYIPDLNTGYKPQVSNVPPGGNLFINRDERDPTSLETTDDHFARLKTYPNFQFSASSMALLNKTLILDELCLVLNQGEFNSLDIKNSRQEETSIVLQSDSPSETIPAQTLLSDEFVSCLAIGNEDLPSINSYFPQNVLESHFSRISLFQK
Experimental: Spleens were sterilely removed from mice, sliced, and mashed in the presence of PBS buffer, 2% fetal bovine serum, and 1 mM EDTA. Tissue was allowed to pass through a number 26 syringe and was filtered through a 70 μm mesh nylon strainer. Cells were cultured with non-essential amino acids, 2 μg/ml of anti-CD3, and 20 μg/ml of anti-CD-28 as survival and differentiation factors.
Splenocytes or TH17 cells were distributed in 384-well plates (Optiplate; Perkin Elmer) (100,000 cells/well). Cells were pre-incubated for 30 minutes with different concentrations of peptide APG-2305 or APG-2309 and incubated with 25 ng/ml of IL-23 (R&D systems) for 10 minutes. STAT3 phosphorylation was determined with the kit Alpha Screen SureFire p-STAT-3 assay from Perkin Elmer according to manufacturer's instructions. Briefly, after incubation with IL-23, cells were lysed and contacted with (1) protein A acceptor conjugated beads coated with anti-p-STAT-3 (Tyr705) and (2) streptavidin-coated donor beads. The resulting signal was measured with a Perkin Elmer Wallac En vision 2104 Multilabel reader. Graphs were generated using GraphPrism 4 software.
The effect of peptide APG-2305 and APG-2309 derivatives on IL-23-induced STAT3 phosphorylation was determined using CD-1 mice freshly isolated splenocytes and the Alpha Screen p-STAT3 assay (see above materials and methods) (FIGS. 6 and 7). […] As described herein, based on the efficacy of derivatives, we have identified regions in APG-2305 and APG-2309 peptides that are important for their ability to affect IL-23R activity.

[3] = biological target: T3, mouse IL-23 receptor (IL-23R) on mouse splenocytes and differentiated TH17 cells (mouse, UniProt Q8K4B4 24-644); assay: cell-based or functional assay
T3 sequence (looked up): T2 sequence (Q8K4B4 24-644)

[4] = biological target: T4, human IL-23 receptor (IL-23R) on PMA-activated HL-60 human monocytes (human, UniProt Q5VWK5 24-629); assay: cell-based or functional assay
T4 sequence (looked up): T1 sequence (Q5VWK5 24-629)

[5] = mouse splenocytes (FIGS. 6 and 7)

| Molecule | activity of derivative compared to parent peptide, STAT3 phosphorylation assay [2, 5] | also measured |
| --- | --- | --- |
| DLSSGYPPDI [Peptide 2301] | – | effect on IL-23-induced STAT3 phosphorylation [1]: agonistic properties; also recorded: agonist of IL-23R biological activity |
| EEQQYL [Peptide 2305-5] | measurable loss of activity | – |
| EQQYL [Peptide 2305-6] | measurable loss of activity | – |
| ESKQLQL [Peptide 2309-3] | increases the activity | – |
| KKYLVWVQ [Peptide 2307] | – | effect on IL-23-induced STAT3 phosphorylation [1]: antagonize IL-23-induced STAT3 phosphorylation; also recorded: demonstrable efficacy; also recorded: inhibit |
| LPDEVTCV [Peptide 2303] | – | effect on IL-23-induced STAT3 phosphorylation [1]: antagonize IL-23-induced STAT3 phosphorylation; also recorded: demonstrable efficacy; also recorded: inhibit |
| LVLDDLHLQLQKSEEMGLANAAQV (not fully specified (some residues); also: D-amino acids, extent not given here) [Peptide 2309-2-1] | better efficacy than the parent 2309 peptide | – |
| MAESKQLQL [Peptide 2309-1] | increases the activity | – |
| TEEAQQYL [Peptide 2305-1] | total loss of activity | – |
| TEEE [Peptide 2305-11] | increased the activity | – |
| TEEEQ [Peptide 2305-10] | increased the activity | – |
| TEEEQQ [Peptide 2305-9] | abolished the activity | – |
| TEEEQQY [Peptide 2305-8] | abolished the activity | – |
| VQAANALGMEESKQLQLHLDDLVL [Peptide 2309-1-1, extended region of peptide 2309 covering part of the loop in D3 domain of IL-23R] | – | inhibition of STAT3 phosphorylation by derivative ([2]; mouse splenocytes (FIG. 7)): 100%; increase in activity relative to the parent peptide [2, 5]: 50% |
| B1 | – | IC50 for IL-23-induced STAT3 phosphorylation in mouse splenocytes (25 ng/ml mouse IL-23) [3]: 2 nM; inhibition of IL-23-induced STAT3 phosphorylation in PMA-activated HL-60 monocytes, IC50 [4]: 2 nM; inhibition of IL-23-induced tumor necrosis factor (TNF) formation in PMA-activated HL-60 monocytes (ELISA), IC50 [4]: 1.6 nM |
| B2 | – | inhibition of IL-23-induced STAT3 phosphorylation in mouse splenocytes (FIG. 6), change relative to parent 2305 [3]: 25% |
